Experimental data from the supplement of paper PMC10065799, “High-throughput profiling of sequence recognition by tyrosine kinases and SH2 domains using bacterial peptide display” (eLife, 2023).

How the values were obtained:
AncSZ = experiment: phosphorylation enrichment, bacterial display (enrichment ratio); higher = better substrate or ligand; peptides without Tyr show the background
EPHB1 = EPHB1 (UniProt P54762); experiment: as above
EPHB2 = EPHB2 (UniProt P29323); experiment: as above
FGFR1 = FGFR1 (UniProt P11362); experiment: as above
FGFR3 = FGFR3 (UniProt P22607); experiment: as above
Sequence of FGFR3 (P22607 whole entry, looked up): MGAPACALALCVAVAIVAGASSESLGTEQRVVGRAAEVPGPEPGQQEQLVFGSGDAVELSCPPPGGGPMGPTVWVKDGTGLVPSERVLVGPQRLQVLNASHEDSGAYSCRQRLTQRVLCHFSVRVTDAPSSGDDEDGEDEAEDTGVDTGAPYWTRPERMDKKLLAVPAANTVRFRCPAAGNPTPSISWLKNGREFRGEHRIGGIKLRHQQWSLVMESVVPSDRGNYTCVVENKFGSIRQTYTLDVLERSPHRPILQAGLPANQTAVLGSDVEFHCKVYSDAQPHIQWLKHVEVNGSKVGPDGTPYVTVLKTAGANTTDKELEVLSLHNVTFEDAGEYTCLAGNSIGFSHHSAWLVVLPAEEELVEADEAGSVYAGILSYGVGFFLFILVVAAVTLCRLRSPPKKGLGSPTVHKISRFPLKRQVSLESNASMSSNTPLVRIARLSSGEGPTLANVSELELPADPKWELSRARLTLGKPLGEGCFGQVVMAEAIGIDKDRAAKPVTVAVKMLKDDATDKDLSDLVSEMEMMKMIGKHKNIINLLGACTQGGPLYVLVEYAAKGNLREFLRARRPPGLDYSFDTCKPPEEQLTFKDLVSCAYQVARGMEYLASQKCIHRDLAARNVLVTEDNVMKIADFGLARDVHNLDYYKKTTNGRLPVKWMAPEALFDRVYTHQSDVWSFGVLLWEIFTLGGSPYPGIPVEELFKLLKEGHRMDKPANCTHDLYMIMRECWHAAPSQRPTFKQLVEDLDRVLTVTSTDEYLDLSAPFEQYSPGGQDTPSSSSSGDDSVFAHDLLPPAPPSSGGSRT

Fer (mouse) = experiment: as above
Fes = Fes (UniProt P07332); experiment: as above
Sequence of Fes (P07332 whole entry, looked up): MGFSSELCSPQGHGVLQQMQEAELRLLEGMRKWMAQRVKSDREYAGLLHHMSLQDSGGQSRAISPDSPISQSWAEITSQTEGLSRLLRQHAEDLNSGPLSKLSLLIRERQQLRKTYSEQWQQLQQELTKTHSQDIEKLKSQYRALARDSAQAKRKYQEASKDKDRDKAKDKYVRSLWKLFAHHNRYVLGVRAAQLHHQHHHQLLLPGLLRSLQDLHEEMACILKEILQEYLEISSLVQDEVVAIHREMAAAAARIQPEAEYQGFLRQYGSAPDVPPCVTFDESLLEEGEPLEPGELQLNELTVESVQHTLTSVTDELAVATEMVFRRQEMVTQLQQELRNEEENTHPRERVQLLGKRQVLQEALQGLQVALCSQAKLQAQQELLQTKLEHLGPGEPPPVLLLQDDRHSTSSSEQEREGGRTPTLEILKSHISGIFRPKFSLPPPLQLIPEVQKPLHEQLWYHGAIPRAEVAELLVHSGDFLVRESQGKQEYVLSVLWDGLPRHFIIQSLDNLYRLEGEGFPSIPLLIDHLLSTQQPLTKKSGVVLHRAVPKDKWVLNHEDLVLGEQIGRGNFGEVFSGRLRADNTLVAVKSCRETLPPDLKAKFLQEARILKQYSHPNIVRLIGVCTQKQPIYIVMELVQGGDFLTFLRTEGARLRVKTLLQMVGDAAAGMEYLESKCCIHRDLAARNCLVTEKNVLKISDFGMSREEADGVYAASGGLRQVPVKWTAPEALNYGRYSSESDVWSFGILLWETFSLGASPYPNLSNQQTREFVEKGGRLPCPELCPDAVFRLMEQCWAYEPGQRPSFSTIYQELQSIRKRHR

Fyn = Fyn (UniProt P06241); experiment: as above
Sequence of Fyn (P06241 whole entry, looked up): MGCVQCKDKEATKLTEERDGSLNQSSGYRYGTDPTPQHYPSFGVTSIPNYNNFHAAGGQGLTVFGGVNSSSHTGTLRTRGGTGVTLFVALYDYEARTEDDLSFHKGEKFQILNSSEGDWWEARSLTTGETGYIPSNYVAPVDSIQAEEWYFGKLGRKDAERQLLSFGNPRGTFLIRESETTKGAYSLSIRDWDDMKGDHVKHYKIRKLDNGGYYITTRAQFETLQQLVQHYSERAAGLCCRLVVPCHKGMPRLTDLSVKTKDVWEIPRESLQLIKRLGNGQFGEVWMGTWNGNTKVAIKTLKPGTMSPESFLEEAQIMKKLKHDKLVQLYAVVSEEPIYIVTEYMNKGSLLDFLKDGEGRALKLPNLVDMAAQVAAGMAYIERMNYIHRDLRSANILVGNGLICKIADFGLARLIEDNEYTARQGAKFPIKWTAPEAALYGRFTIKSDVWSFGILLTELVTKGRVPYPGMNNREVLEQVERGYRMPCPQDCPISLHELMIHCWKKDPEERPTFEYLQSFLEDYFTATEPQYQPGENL

Hck = Hck (UniProt P08631); experiment: as above
Sequence of Hck (P08631 whole entry, looked up): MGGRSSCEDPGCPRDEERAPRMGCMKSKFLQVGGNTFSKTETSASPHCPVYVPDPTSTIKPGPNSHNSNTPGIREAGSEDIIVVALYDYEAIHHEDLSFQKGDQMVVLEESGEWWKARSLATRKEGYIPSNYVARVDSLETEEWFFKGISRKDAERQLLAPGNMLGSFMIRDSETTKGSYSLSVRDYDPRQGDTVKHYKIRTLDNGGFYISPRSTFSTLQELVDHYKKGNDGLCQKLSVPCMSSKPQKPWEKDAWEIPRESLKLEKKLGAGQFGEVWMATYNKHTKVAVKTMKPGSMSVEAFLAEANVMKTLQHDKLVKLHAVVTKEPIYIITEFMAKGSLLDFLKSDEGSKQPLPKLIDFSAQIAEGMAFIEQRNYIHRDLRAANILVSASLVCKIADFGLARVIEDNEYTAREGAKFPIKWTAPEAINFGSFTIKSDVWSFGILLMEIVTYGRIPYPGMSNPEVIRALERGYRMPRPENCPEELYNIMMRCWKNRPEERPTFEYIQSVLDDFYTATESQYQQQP

Jak2 = Jak2 (UniProt O60674); experiment: as above
MERTK = MERTK (UniProt Q12866); experiment: as above
Sequence of MERTK (Q12866 whole entry, looked up): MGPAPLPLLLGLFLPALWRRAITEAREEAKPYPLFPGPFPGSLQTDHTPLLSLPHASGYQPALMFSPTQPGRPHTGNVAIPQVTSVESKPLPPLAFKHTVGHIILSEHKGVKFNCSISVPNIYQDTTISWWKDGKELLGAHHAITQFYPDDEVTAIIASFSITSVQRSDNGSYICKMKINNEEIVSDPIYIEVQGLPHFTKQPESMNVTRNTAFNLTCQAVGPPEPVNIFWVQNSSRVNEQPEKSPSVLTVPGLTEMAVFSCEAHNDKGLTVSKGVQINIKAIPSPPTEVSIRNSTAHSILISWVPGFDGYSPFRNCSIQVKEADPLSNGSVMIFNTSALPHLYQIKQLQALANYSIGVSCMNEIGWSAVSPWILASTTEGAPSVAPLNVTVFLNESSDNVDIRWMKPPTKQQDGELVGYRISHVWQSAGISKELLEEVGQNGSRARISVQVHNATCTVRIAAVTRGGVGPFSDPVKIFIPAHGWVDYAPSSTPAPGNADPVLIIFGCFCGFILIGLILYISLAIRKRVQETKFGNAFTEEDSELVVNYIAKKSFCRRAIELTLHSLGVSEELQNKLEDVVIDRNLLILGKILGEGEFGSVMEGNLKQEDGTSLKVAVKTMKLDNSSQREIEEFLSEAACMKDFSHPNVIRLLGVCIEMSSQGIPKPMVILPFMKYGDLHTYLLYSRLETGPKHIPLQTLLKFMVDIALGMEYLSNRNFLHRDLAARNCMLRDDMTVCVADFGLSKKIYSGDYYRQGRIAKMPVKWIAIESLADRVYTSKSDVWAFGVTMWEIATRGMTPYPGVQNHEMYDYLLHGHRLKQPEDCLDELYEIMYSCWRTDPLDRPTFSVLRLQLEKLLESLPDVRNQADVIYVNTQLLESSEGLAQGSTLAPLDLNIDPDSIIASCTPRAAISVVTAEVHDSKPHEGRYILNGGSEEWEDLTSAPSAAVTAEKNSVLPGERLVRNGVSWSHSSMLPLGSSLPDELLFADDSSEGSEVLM

c-Abl (mouse) = experiment: as above
c-Src = experiment: as above
Grb2 SH2 = Grb2 SH2 (UniProt P62993); experiment: SH2 binding enrichment of the phosphorylated peptide, bacterial display (enrichment ratio); higher = better substrate or ligand; peptides without Tyr show the background
SHP2-C SH2 = experiment: as above
c-Src SH2 = experiment: as above
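Throughout, for SH2 binding enrichment of the phosphorylated peptide, bacterial display: peptide library displayed on the E. coli surface as eCPX fusions, selected cells deep-sequenced, score is each peptide's frequency after selection divided by its frequency in the input.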
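Throughout, for phosphorylation enrichment, bacterial display: 11-residue human phosphosite peptides and single-mutation variants displayed on the E. coli surface, counted by deep sequencing, each peptide's frequency after selection divided by its frequency in the unselected input library; frequency after pTyr selection over input frequency; kinase dosed for 20-30% of maximal phosphorylation in three min.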

Sequence of EPHB2 (P29323 whole entry, looked up): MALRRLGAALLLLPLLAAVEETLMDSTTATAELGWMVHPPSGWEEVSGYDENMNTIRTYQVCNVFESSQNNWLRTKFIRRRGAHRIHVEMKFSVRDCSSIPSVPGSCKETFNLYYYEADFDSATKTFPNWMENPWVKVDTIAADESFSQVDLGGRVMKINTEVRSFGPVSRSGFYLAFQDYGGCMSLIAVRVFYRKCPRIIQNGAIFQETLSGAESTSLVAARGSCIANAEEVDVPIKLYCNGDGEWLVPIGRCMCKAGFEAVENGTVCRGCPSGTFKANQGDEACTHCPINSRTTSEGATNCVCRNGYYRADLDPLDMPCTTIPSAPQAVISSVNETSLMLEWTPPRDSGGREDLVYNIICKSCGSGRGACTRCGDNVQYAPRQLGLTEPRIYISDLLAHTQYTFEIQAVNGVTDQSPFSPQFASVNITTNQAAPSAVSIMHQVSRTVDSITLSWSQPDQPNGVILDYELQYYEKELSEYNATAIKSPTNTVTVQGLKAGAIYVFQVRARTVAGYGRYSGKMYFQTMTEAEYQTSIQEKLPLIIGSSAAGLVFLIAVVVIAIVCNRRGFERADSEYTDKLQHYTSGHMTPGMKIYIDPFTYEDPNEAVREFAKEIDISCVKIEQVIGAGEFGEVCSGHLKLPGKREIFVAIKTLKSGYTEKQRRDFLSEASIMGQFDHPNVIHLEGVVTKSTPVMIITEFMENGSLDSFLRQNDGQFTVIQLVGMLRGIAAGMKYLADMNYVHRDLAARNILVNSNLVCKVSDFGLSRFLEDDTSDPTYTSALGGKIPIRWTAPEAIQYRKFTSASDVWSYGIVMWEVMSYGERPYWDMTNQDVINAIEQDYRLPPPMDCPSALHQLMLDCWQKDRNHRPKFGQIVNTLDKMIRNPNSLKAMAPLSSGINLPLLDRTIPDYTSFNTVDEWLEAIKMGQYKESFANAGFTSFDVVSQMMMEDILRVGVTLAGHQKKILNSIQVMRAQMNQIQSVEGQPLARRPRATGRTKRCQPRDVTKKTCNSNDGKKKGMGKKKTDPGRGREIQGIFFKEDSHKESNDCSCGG

SH2 binding enrichment (Grb2 SH2) | SH2 binding enrichment (SHP2-C SH2) | SH2 binding enrichment (c-Src SH2) | Sequence | phosphorylation enrichment (AncSZ) | phosphorylation enrichment (EPHB1) | phosphorylation enrichment (EPHB2) | phosphorylation enrichment (FGFR1) | phosphorylation enrichment (FGFR3) | phosphorylation enrichment (Fer (mouse)) | phosphorylation enrichment (Fes) | phosphorylation enrichment (Fyn) | phosphorylation enrichment (Hck) | phosphorylation enrichment (Jak2) | phosphorylation enrichment (MERTK) | phosphorylation enrichment (c-Abl (mouse)) | phosphorylation enrichment (c-Src)
0.757 | 0.665 | 0.909 | YAGRDYSLDEF [MYOF_Y1705_G1701A] | 1.06 | 0.658 | 0.536 | 0.54 | 0.686 | 0.588 | 1.14 | 0.595 | 0.549 | 1.37 | 0.52 | 0.928 | 0.878
1.19 | 0.838 | 1.02 | YCVDCYKNFVA [FHL1_Y213] | 0.668 | 0.564 | 0.514 | 0.572 | 0.651 | 0.532 | 0.832 | 0.532 | 0.54 | 0.726 | 0.722 | 0.737 | 0.507
0.728 | 0.986 | 0.322 | YGPPQYNIQYS [ERBB2IP_Y977] | 0.989 | 0.412 | 0.592 | 0.462 | 0.557 | 0.672 | 0.802 | 0.549 | 0.72 | 0.655 | 0.602 | 0.858 | 0.617
0.768 | 0.602 | 0.572 | YIPFRYPKEFQ [IDS_Y234_H229Y] | 0.777 | 0.464 | 0.485 | 0.748 | 0.658 | 0.425 | 0.656 | 0.644 | 0.831 | 0.477 | 0.554 | 0.464 | 0.768

Continued, sequence first:

Sequence | SH2 binding enrichment (Grb2 SH2) | SH2 binding enrichment (SHP2-C SH2) | SH2 binding enrichment (c-Src SH2) | phosphorylation enrichment (AncSZ) | phosphorylation enrichment (EPHB1) | phosphorylation enrichment (EPHB2) | phosphorylation enrichment (FGFR1) | phosphorylation enrichment (FGFR3) | phosphorylation enrichment (Fer (mouse)) | phosphorylation enrichment (Fes) | phosphorylation enrichment (Fyn) | phosphorylation enrichment (Hck) | phosphorylation enrichment (Jak2) | phosphorylation enrichment (MERTK) | phosphorylation enrichment (c-Abl (mouse)) | phosphorylation enrichment (c-Src)
WQQQSYLDYGI [CTNNB1_Y30_S33Y] | 0.818 | 0.648 | 0.511 | 1.11 | 0.808 | 1.07 | 0.91 | 0.827 | 0.453 | 1.03 | 0.604 | 0.615 | 0.842 | 0.426 | 0.711 | 0.743
WVFNHYRWIIW [BRCA2_Y2624_YF] | 1.09 | 0.776 | 0.717 | 1.29 | 0.611 | 0.536 | 0.452 | 0.824 | 0.456 | 1.39 | 0.343 | 0.403 | 1.36 | 0.437 | 0.862 | 0.432
WVYNHYRWIIW [BRCA2_Y2624] | 1.29 | 1.18 | 0.509 | 0.937 | 0.521 | 0.597 | 0.499 | 0.702 | 0.431 | 1.11 | 0.375 | 0.461 | 1.14 | 0.301 | 0.841 | 0.415
YALAEYTEVKT [ALDH1A3_Y497] | 0.66 | 4.27 | 5.59 | 1.29 | 0.651 | 0.719 | 1.73 | 1.25 | 1.31 | 0.901 | 0.572 | 0.724 | 0.812 | 0.652 | 0.614 | 0.658
